Reference: patent publication US20140235701, “NGF APTAMER AND APPLICATION THEREOF” (RIBOMIC INC., published 2014)
Residue numbers refer to the chain shown, from its start.

B1: SEQ ID NO: 82(16) (ssRNA)
RNA: GGGUCCUGGAUAAGAGUUUCCGUCUCGUAUCCUGUUACCC
modifications: 2'-F C and U except C38; 2'-OMe G1-3,G9,G14,G16,G22,G27,C38; 2'-OH G8,G34; 2'-H A; idT 5' and 3'
B2: SEQ ID NO: 82(2) (ssRNA)
RNA: B1 RNA
modifications: 2'-F C and U except U4; 2'-OMe G1-3,U4,G9,G14,G16,G22,G27; 2'-OH G8,G34; 2'-H A; idT 5' and 3'
B3: SEQ ID NO: 82(25) (ssRNA)
RNA: B1 RNA
modifications: 2'-F C5,U7,U17,U18,U19,C20,C24,U25,U33,U36; 2'-OH G8,G34; 2'-H A; 2'-OMe all other; idT 5' and 3'
B4: SEQ ID NO: 82(55) (ssRNA)
RNA: B1 RNA
modifications: 2'-F C5,U7,U17,U18,U19,C20,C24,U25,U33,U36; 2'-OH G8,G34; 2'-H A; 2'-OMe all other; 5' PEG80TS4; 3' idT
B5: SEQ ID NO: 162 (ssRNA)
RNA: B1 RNA with U17T, U33T
modifications: 2'-F C5,U7,U18,U19,C20,C24,U25,U36; dT17,dT33; 2'-OH G8,G34; 2'-H A; 2'-OMe all other; idT 5' and 3'
B6: SEQ ID NO: 17 (ssRNA)
RNA: AGAAGUGCAAUACUUUCGCGGCAUAUGUGCAAACCUUGCCACGACUAUGUGCGCAUAC
modifications: 2'-F C and U; 2'-OH G; 2'-H (deoxy) A

The binders below were run against T1, NGF (nerve growth factor) (Homo sapiens, UniProt P01138 P01138:122-241) (assay: cell_activity; TF-1 cell proliferation inhibition). Settings: tags: R&D Systems; chain copies: 2.
Experimental: Two NGF receptor (human TrkA and human p75) genes were introduced into TF-1 cells (ATCC Number: CRL-2003), which is a human erythroleukemic cell line, by using a retrovirus vector to give cells that highly express two receptors simultaneously and stably. The cells were suspended in an RPMI-1640 medium containing 20% fetal bovine serum, and seeded in a white 96 well flat-bottom plate at 1000 cells (50 μL) per well. […] With the amount of luminescence per well obtained by the addition of NGF alone and culture of the cells for 3 days as inhibitory activity 0%, and that of the well obtained by NGF free culture for 3 days as inhibitory activity 100%, the inhibitory activity of the aptamer was calculated from the amount of luminescence per well obtained by culturing with the addition of NGF and the aptamer in mixture.

T1 sequence (P01138 122-241, one chain of several): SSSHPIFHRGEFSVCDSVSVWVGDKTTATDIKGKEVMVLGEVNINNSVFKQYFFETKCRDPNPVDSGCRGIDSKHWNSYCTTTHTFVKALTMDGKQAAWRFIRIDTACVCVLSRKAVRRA

Binder	IC50 [pM]
B1	26
B2	41
B3	85
B4	39
B5	14

The binders below were run against T2, NT-4 (neurotrophin-4) (Homo sapiens, UniProt P34130 P34130:81-210) (assay: cell_activity; TF-1 TrkB cells). Settings: tags: R&D Systems; chain copies: 2.
T2 sequence: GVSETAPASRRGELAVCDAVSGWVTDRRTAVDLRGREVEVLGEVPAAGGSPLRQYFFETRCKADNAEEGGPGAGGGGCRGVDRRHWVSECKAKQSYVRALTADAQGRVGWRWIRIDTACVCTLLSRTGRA
From the text: Using TF-1 cells, whether NGF aptamer inhibits BDNF, NT-3, NT-4 was examined. Human receptor genes (TrkB, TrkC, p75) for respective neurotrophic factors were introduced into TF-1 cells (ATCC Number: CRL-2003), which is a human erythroleukemic cell line, by using a retrovirus vector to give cells that highly express these receptors stably. TF-1 cells introduced with TrkB and p75 were used for the evaluation of inhibitory activity against BDNF, TF-1 cells introduced with TrkC and p75 were used for the evaluation against NT-3, and TF-1 cells introduced with TrkB alone were used for the evaluation against NT-4. These cells were suspended in an RPMI-1640 medium containing 20% fetal bovine serum, and seeded in a white 96 well flat-bottom plate at 1000 cells (50 μL) per well. Thereto was added a mixed solution 50 μL of human BDNF (final concentration 0.074 nM) or NT-3 (final concentration 0.074 nM) or NT-4 (final concentration 0.071 nM) and the aptamer (final concentration 1 μM-0.01 nM), which had been pre-reacted at room temperature for 30 min in a serum-free RPMI-1640 medium, 3 days later, 100 μL of CellTiter-Glo reagent for CellTiter-Glo Luminescent Cell Viability Assay (manufactured by Promega) was added to each well, chemiluminescence was measured by a microplate reader. With the amount of luminescence per well obtained by the addition of BDNF or NT-3 or NT-4 alone and culture of the cells for 3 days as inhibitory activity 0%, and that of the well obtained by culture for 3 days without addition of BDNF or NT-3 or NT-4 as inhibitory activity 100%, the inhibitory activity of the aptamer was calculated from the amount of luminescence per well obtained by culturing with the addition of BDNF or NT-3 or NT-4 and the aptamer in mixture. […] The 50% inhibitory concentration (IC₅₀) was determined from the concentrations at two, above and below points sandwiching the 50% inhibitory activity. An IC₅₀ value indicated as “>X” means that the inhibitory activity was not more than 50% when the indicated concentration X was the maximum measured concentration. N.D. means not measured.

Binder	IC50 [pM]
B1	< 3000
B2	< 3000
B3	40400

Each binder was assayed against T1, NGF (nerve growth factor) (assay: SPR; binding maintained). Settings: tags: R&D Systems; chain copies: 2.

Binder	binding result
GGGUCCUGCUGCGUAGUUUCCGUCUACGUGGCUGUUACCC (ssRNA, 2'-F C/U, dA, 2'-OH G) [SEQ ID NO: 63]	binds
GGGUCCUGUUGCGUAGUUUCCGUCUACGUGACUGUUACCC (ssRNA, 2'-F C/U, dA, 2'-OH G) [SEQ ID NO: 64]	binds
GGGUCCUGCUACGGAGUUUCCGUCUCGGUGGCUGUUACCC (ssRNA, 2'-F C/U, dA, 2'-OH G) [SEQ ID NO: 65]	binds
GGGUCCUGUUGCGUAGUUUCCGUCUGCGUGGCUGUUACCC (ssRNA, 2'-F C/U, dA, 2'-OH G) [SEQ ID NO: 69]	binds
GGGUCCUGCUGCGUAGUUUCCGUCUUCGCGGUUGUUACCC (ssRNA, 2'-F C/U, dA, 2'-OH G) [SEQ ID NO: 75]	binds

Each binder was assayed against T1, NGF (nerve growth factor) (assay: SPR; more than 40N). Settings: tags: R&D Systems; chain copies: 2.
Experimental: As the measuring apparatus, BIAcore2000 manufactured by BIAcore was used and, as the sensor chip, CM5 that reacts with an amino group was used. […] For the reaction of an amino group on the protein side and a carboxyl group on the chip side, ethyl-3-carbodiimide hydrochloride and N-hydroxysuccinimide were used. After the reaction, blocking by ethanolamine-HCl was performed. The immobilized amount of NGF was set to 3,000-4,000 RU. An aptamer for analyte was prepared to 0.15 μM-0.5 μM. As a running buffer, solution A was used. Here, solution A is a mixed solution of 145 mM sodium chloride, 5.4 mM potassium chloride, 1.8 mM calcium chloride, 0.8 mM magnesium chloride, 20 mM Tris (pH 7.6), 0.05% Tween 20. As a regeneration solution, a mixed solution of 1M NaCl and 50 mM NaOH was used. NGF was immobilized on FC2, and the results of FC1 were subtracted to give a final sensorgram.
The binding activity of these aptamers to NGF was evaluated by the surface plasmon resonance method in the same manner as in Example 1.

Binder	binding result
B6	binds
UGCAAUACUUUCGCGGCAUAUGUGCAAACCUUGCCACGACUAUGUGCG (ssRNA, 2'-F C and U; 2'-OH G; 2'-H (deoxy) A) [SEQ ID NO: 18]	binds

Each binder was assayed against T1, NGF (nerve growth factor) (assay: cell_activity; neurite outgrowth inhibition). Settings: tags: R&D Systems; chain copies: 2.
Experimental: The cells (2500 cells per well) were cultured for one day in an RPMI-1640 medium containing 2.5% horse serum and 1.25% fetal bovine serum in a 96 well flat-bottom plate coated with collagen type IV. […] Two days later, the cytoplasm and nuclei were stained using Cellomics Neurite Outgrowth Kit (manufactured by Thermo Scientific), and neurite length per cell was measured by Cellomics ArrayScan VTI (manufactured by Thermo Scientific). With the neurite length per cell obtained by the addition of NGF alone as inhibitory activity 0%, and that of the cell obtained by NGF free culture for 2 days as inhibitory activity 100%, the inhibitory activity of the aptamer was calculated from the neurite length per cell obtained by culturing with the addition of NGF and the aptamer in mixture.

Binder	IC50 [pM]
B3	< 100
B4	101
B5	33

The binders below were run against T3, NT-3 (neurotrophin-3) (Homo sapiens, UniProt P20783 P20783:139-257) (assay: cell_activity; TF-1 TrkC/p75 cells). Settings: tags: R&D Systems; chain copies: 2.
T3 sequence: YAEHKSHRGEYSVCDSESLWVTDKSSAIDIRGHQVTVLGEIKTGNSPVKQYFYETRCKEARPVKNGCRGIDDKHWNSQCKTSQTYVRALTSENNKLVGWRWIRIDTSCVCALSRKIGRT
From the text: Using TF-1 cells, whether NGF aptamer inhibits BDNF, NT-3, NT-4 was examined. Human receptor genes (TrkB, TrkC, p75) for respective neurotrophic factors were introduced into TF-1 cells (ATCC Number: CRL-2003), which is a human erythroleukemic cell line, by using a retrovirus vector to give cells that highly express these receptors stably. TF-1 cells introduced with TrkB and p75 were used for the evaluation of inhibitory activity against BDNF, TF-1 cells introduced with TrkC and p75 were used for the evaluation against NT-3, and TF-1 cells introduced with TrkB alone were used for the evaluation against NT-4. These cells were suspended in an RPMI-1640 medium containing 20% fetal bovine serum, and seeded in a white 96 well flat-bottom plate at 1000 cells (50 μL) per well. Thereto was added a mixed solution 50 μL of human BDNF (final concentration 0.074 nM) or NT-3 (final concentration 0.074 nM) or NT-4 (final concentration 0.071 nM) and the aptamer (final concentration 1 μM-0.01 nM), which had been pre-reacted at room temperature for 30 min in a serum-free RPMI-1640 medium, 3 days later, 100 μL of CellTiter-Glo reagent for CellTiter-Glo Luminescent Cell Viability Assay (manufactured by Promega) was added to each well, chemiluminescence was measured by a microplate reader. With the amount of luminescence per well obtained by the addition of BDNF or NT-3 or NT-4 alone and culture of the cells for 3 days as inhibitory activity 0%, and that of the well obtained by culture for 3 days without addition of BDNF or NT-3 or NT-4 as inhibitory activity 100%, the inhibitory activity of the aptamer was calculated from the amount of luminescence per well obtained by culturing with the addition of BDNF or NT-3 or NT-4 and the aptamer in mixture. When the inhibitory activity was 0 or below, ‘0%’ is indicated. The 50% inhibitory concentration (IC₅₀) was determined from the concentrations at two, above and below points sandwiching the 50% inhibitory activity. An IC₅₀ value indicated as “>X” means that the inhibitory activity was not more than 50% when the indicated concentration X was the maximum measured concentration. N.D. means not measured.

Binder	IC50 [pM]
B1	34400
B2	40600
B3	2150
B4	970
